One may read the Kd as the free concentration of one partner at which half of the binding sites on the other are occupied at equilibrium, for simple one-to-one binding.

The target of this assay is T1, human CXCR2 receptor (Homo sapiens, UniProt P25025).
T1 construct: expressed in transfected cells; host or cells: HEK293, stably transfected geneticin-resistant clones, vector RcCMV; membranes purified by sucrose gradient
T1 sequence (P25025 1-360): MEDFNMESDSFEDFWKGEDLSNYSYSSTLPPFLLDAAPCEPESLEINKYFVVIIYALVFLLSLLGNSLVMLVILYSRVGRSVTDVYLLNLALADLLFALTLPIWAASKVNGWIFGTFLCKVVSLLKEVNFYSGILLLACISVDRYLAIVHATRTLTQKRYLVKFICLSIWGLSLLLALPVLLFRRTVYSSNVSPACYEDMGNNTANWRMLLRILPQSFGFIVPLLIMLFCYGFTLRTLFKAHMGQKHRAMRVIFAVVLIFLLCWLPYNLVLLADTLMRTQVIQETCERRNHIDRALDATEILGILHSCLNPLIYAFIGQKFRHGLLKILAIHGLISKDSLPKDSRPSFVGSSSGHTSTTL
Briefly: Potency (pIC50) ligand binding assay, inhibition of [125I]IL-8 binding. The settings on record: human CXCR2 membranes; read-out: Kd (equilibrium dissociation constant) determined for IL-8. As to the method: Potency (pIC50)—Ligand Binding Assay
The potency of antagonists at the human CXCR2 receptor was determined in vitro by quantifying their ability to inhibit specific binding of the CXCR2 radioligand, [^125I]interleukin-8 (IL-8), from membranes of HEK293 cells transfected with the human recombinant CXCR2 receptor.
Commercially sourced materials were obtained as follows: U-bottomed 96-well plates (3799) and 225 cm^2 vented cap culture flasks (3001) from Costar, Corning, Kent, UK. Multiscreen filter plates (0.45 μm; MAHV N45 50), vacuum manifold and pump (XF54 230 50) from Millipore, Watford, UK. N-[2-hydroxyethyl]piperazine-N′-[2ethanesulphonic acid] (HEPES; H-3375), ethylene diamine-tetraacetic acid (EDTA; E1644), magnesium chloride (M-9272), gelatin (G9382), dithiothreitol (DTT; D06052), sodium chloride (S3160/63), sodium hydroxide (B6506), bacitracin (B0125), inactivated foetal calf serum (FCS; CR0848) and DMSO Fluka Chemika (41648) from Sigma, Poole, UK. MicroScint-O (6013611) Packard BioScience, Pangboume, UK. Complete protease inhibitor cocktail tablets (1836145) from Boehringer s Mannheim, GmbH, Germany. Human recombinant [^125I]IL-8 74 TBq/mmol, 0.712 MBq/ml (IM249) from Amersham, Horsham UK. All other tissue culture reagents were purchased from Invitrogen, Paisley, Scotland, UK. All other chemical reagents were analytical grade from Fisher Scientific, Loughborough, UK
HEPES-buffered salt solution pH 7.4 containing HEPES (10 mM), potassium chloride (2.7 mM), sodium chloride (137 mM), potassium hydrogen phosphate (0.4 mM), calcium chloride (1.8 mM), magnesium chloride (1 mM), gelatin (0.1% (w/v)) and bacitracin (100 μg/ml).
HEPES-buffered Tyrode's solution pH 7.4 containing HEPES (10 mM), potassium chloride (2.7 mM), sodium chloride (137 mM), potassium hydrogen phosphate (0.4 mM), glucose (11 mM).
Hypotonic buffer: 3:1 mix of water: HEPES-buffered Tyrode's solution.
HEK293 cells were transfected with human CXCR2 (EMBL L19593) cDNA, previously cloned into the eukaryotic expression vector RcCMV. Cloned cell-lines were generated from stably-transfected geneticin-resistant populations. Cells were routinely grown to approximately 80% confluence in DMEM medium containing 10% (v/v) foetal calf serum and glutamine (2 mM) in a humidified incubator at 37° C., 5% CO2. Cells were harvested from flasks using Accutase™ at 37° C. for 3 to 5 minutes and resuspended on ice in hypotonic buffer at a density of 2×10^7 cells/mL. Membranes were prepared on ice by homogenisaton using a polytron tissue homogenizer set at 22000 rpm. The membrane fraction was purified by sucrose gradient centrifugation where homogenised cells were layered onto 41% (w/v) sucrose solution then centrifuged at 140000 g for 1 hour at 4° C. The membrane fraction was harvested at the interface, diluted 4-fold with HEPES-buffered Tyrode's solution and centrifuged at 100000 g for 20 minutes at 4° C. The membrane pellet was re-suspended at 1×10^8 cell equivalents/mL in HEPES-buffered Tyrode's solution and subsequently stored in aliquots at −80° C. All buffers used for membrane preparation and storage were made in the presence of 1 mM DTT and Complete Protease Inhibitor™ cocktail tablets, made up to manufacturers instructions.
Assays were performed in HEPES-buffered salt solution in 96-well plates. [^125I]IL-8 was used at a final concentration of 0.06 nM, pre-diluted from a 9.6 nM stock. The final DMSO concentration in the assay was 1% (v/v). Test compounds were prepared by serial dilution in DMSO followed by a ten-fold dilution into HEPES-buffered salt solution to give a working solution containing compound and 10% DMSO. The control for total binding (B0) of [^125I]IL-8 was determined in the absence of compound. The control for non-specific binding (NSB) was determined by measuring [^125I]IL-8 binding in the presence of (1R)-5-[[(3 -chloro-2-fluorophenyl)methyl]thio]-7-[[2-hydroxy-1-methylethyl]amino]thiazolo[4,5-d]pyrimidin-2(3H)-one dihydrate, sodium salt at 1 μM final concentration. […]

Consider “IL-8: interleukin-8, CXCR2 ligand, used as the human recombinant [125I] radioligand”, for which the Kd is 1.2 nM.
